# According to patent publication US20250326840A1 (QURE BIOTECHNOLOGY SHANGHAI, published 2025):
# B1: QP250251 (18D5 analog) (antibody, human IgG4 S228P, kappa, V domains shown)
# VH: QVQLQQPGAELVRPGSSVKLSCKASGYTFTSYWVHWVKQRPIQGLEWIGNIDPSDSDTHYNQKFKDKASLTVDKSSSTAYMQLSSLTFEDSAVYYCVRGGTGTMAWFAYWGQGTLVTVSA
# VL: DVVMTQTPLSLPVSLGDQASISCRSSQSLVHSYGNTYLYWYLQKPGQSPKLLIYRVSNRFSGVPDRFSGSGSGTDFTLKISRVEAEDLGVYFCFQGTHVPYTFGSGTKLEIKR
# notes: also called SIRPα antibody 18D5 from OSE
# How the values were obtained:
# [1] = target: SIRPα V2 fusion Fc (mouse IgG2a) (human); assay: ELISA, SIRPα V2-mouse IgG2a Fc coated, anti-hFab detection; unit from the x axis; the curve is flat at the baseline, the fit is marked ambiguous (~)
# [2] = target: SIRPα V3 fusion Fc (mouse IgG2a) (human); assay: ELISA, SIRPα V3-mouse IgG2a Fc coated, anti-hFab detection; unit from the x axis; the curve is flat at the baseline, the fit is marked ambiguous (~)
# SIRPα V2 fusion Fc (mouse IgG2a) (human), sequence (chain, as listed by the source limits assumed): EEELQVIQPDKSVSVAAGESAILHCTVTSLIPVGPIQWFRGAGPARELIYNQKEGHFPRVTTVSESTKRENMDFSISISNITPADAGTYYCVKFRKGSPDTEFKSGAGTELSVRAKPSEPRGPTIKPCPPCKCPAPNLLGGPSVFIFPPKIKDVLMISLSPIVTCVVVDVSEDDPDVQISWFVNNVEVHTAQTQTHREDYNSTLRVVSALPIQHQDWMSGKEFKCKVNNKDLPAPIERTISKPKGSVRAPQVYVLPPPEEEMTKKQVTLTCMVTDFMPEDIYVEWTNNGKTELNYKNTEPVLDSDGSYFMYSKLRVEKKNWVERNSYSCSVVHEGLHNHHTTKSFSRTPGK
binder,measurement,setting,value
B1,EC50,[1],~0.0554 nM
same,EC50,[2],~58.7 nM
